Laboratory results taken from article PMC10849636 (bioRxiv, 2024).

Target: the molecule itself
Assay: SEC

B1: full-length WT HIV-1 integrase (IN) (enzyme)
chain: FLDGIDKAQEEHEKYHSNWRAMASDFNLPPVVAKEIVASCDKCQLKGEAMHGQVDCSPGIWQLDCTHLEGKVILVAVHVASGYIEAEVIPAETGQETAYFLLKLAGRWPVKTVHTDNGSNFTSTTVKAACWWAGIKQEFGIPYNPQSQGVIESMNKELKKIIGQVRDQAEHLKTAVQMAVFIHNFKRKGGIGGYSAGERIVDIIATDIQTKELQKQITKIQNFRVYYRDSRDPVWKGPAKLLWKGEGAVVIQDNSDIKVVPRRKAKIIRDYGKQMAGDDCVASRQDED
binding result: binds
